Data: patent US20110039770A1 (PHARMAGAP, published 2011)

Columns and labels:
[1] = biological target: T1, PKC-ε, purified isoform (UniProt Q02156 1-737); experiment: competition ELISA on coated purified PKC-ε vs anti-PKC ε antibody; PRE 50 µM
T1 construct: also called PKC-epsilon; epsilon
T1 sequence (looked up): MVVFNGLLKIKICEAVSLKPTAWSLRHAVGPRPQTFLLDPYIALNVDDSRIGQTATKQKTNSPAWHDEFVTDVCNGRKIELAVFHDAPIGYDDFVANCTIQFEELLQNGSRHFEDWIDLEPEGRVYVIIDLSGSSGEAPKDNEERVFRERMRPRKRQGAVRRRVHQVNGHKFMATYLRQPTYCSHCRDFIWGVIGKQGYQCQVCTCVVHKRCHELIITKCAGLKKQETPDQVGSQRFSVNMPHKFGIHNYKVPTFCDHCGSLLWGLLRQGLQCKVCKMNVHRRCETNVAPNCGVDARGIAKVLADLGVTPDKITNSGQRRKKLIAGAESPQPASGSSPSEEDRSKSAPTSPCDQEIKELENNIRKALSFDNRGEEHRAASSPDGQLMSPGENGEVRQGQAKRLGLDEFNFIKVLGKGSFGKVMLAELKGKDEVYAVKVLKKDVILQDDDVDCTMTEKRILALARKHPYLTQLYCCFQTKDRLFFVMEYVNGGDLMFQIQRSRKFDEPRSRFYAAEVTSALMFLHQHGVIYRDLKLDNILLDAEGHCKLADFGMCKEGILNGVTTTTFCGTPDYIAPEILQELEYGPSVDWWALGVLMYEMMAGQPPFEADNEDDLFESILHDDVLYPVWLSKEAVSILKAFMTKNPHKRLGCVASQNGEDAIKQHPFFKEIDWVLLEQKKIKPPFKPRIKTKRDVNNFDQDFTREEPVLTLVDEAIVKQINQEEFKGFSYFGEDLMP

[2] = biological target: T2, PKC-βI in extracts of human cell lines (human, UniProt P05771-1 2-671); experiment: Western-blot competition, cell extracts: PRE at 10X/20X the anti-PKC beta I primary antibody concentration competes with that antibody; band densitometry (lower band = PRE bound)
T2 construct: Denatured on the Western blot membrane; beta I splice form; also called PKC-beta I (cell extract)

[3] = biological target: T3, PKC-ζ in extracts of human cell lines (human, UniProt Q05513 1-592); experiment: Western-blot competition, cell extracts: PRE at 10X/20X the anti-PKC zeta primary antibody concentration competes with that antibody; band densitometry (lower band = PRE bound)
T3 construct: Denatured on the Western blot membrane; also called PKC-zeta (cell extract)
T3 sequence (looked up): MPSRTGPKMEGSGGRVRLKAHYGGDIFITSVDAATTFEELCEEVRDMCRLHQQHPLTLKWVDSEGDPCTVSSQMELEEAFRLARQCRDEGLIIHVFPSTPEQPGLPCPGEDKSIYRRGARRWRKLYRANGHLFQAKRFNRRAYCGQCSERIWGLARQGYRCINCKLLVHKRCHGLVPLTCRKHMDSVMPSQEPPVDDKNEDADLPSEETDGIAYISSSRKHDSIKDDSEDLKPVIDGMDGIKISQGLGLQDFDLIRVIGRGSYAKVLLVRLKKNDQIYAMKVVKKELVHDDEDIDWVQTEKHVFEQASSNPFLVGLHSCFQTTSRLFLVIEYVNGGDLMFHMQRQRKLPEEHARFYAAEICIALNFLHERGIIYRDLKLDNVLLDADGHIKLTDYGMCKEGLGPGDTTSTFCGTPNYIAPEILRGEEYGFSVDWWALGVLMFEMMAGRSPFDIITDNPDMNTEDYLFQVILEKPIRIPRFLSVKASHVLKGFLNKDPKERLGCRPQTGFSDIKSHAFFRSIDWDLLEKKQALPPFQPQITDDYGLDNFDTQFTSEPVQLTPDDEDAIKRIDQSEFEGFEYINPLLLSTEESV

[4] = biological target: T1, PKC-ε, purified isoform; experiment: competition ELISA on coated purified PKC-ε vs anti-PKC ε antibody; PRE 100 µM
[5] = biological target: T1, PKC-ε, purified isoform; experiment: competition ELISA on coated purified PKC-ε vs anti-PKC ε antibody; PRE 200 µM
[6] = biological target: T1, PKC-ε, purified isoform; experiment: purified isoform competition ELISA, summary grade
[7] = biological target: T4, PKC-α, purified isoform (UniProt P17252 1-672); experiment: purified isoform competition ELISA, summary grade
T4 construct: also called PKC-alpha; protein kinase C alpha

[8] = biological target: T5, PKC-βI, purified isoform (UniProt P05771-1 1-671); experiment: purified isoform competition ELISA, summary grade
T5 construct: also called PKC-beta I; beta 1

[9] = biological target: T6, PKC-ι in extracts of human cell lines (human, UniProt P41743 2-596); experiment: Western-blot competition, cell extracts: PRE at 10X/20X the anti-PKC iota primary antibody concentration competes with that antibody; band densitometry (lower band = PRE bound)
T6 construct: Denatured on the Western blot membrane; also called PKC-iota (cell extract)
T6 sequence (looked up): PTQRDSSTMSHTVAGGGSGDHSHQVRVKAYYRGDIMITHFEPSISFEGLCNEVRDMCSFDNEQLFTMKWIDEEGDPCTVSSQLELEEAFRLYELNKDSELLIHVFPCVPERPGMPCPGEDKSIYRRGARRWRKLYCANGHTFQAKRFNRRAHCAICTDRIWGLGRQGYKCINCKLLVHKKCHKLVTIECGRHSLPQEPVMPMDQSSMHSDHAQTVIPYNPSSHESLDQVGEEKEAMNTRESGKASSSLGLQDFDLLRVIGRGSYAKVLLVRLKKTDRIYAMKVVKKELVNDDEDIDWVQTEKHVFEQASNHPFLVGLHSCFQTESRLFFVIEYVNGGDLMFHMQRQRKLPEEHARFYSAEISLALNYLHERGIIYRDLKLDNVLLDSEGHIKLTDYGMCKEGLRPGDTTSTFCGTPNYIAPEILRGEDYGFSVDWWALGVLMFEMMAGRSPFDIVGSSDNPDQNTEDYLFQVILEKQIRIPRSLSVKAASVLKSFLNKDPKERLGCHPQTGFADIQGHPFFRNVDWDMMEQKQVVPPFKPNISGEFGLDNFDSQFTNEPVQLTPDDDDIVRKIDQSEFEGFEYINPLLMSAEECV

[10] = biological target: T7, PKC-ε in extracts of human cell lines (human, UniProt Q02156 1-737); experiment: Western-blot competition, cell extracts: PRE at 10X/20X the anti-PKC epsilon primary antibody concentration competes with that antibody; band densitometry (lower band = PRE bound)
T7 construct: Denatured on the Western blot membrane; also called PKC-epsilon (cell extract)
T7 sequence (looked up): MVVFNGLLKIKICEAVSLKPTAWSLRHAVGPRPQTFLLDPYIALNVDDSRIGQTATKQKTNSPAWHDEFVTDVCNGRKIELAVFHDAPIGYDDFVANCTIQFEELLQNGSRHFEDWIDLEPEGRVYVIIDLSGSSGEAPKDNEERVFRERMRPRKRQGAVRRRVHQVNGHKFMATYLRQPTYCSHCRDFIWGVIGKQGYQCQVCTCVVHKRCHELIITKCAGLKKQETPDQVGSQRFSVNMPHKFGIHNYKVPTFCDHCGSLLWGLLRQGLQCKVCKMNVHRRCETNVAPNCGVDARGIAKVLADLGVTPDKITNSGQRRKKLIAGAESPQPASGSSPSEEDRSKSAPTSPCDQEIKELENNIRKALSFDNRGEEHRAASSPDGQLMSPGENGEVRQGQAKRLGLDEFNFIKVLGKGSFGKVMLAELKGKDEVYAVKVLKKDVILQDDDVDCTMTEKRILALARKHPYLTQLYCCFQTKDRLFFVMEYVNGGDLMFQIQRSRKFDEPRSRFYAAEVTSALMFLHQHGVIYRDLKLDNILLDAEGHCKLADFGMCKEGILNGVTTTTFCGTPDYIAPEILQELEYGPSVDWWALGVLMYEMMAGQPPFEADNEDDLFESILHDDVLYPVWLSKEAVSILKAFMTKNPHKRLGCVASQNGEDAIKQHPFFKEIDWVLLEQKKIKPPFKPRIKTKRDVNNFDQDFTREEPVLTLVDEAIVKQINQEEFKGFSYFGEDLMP

T5 sequence (P05771 whole entry, canonical isoform): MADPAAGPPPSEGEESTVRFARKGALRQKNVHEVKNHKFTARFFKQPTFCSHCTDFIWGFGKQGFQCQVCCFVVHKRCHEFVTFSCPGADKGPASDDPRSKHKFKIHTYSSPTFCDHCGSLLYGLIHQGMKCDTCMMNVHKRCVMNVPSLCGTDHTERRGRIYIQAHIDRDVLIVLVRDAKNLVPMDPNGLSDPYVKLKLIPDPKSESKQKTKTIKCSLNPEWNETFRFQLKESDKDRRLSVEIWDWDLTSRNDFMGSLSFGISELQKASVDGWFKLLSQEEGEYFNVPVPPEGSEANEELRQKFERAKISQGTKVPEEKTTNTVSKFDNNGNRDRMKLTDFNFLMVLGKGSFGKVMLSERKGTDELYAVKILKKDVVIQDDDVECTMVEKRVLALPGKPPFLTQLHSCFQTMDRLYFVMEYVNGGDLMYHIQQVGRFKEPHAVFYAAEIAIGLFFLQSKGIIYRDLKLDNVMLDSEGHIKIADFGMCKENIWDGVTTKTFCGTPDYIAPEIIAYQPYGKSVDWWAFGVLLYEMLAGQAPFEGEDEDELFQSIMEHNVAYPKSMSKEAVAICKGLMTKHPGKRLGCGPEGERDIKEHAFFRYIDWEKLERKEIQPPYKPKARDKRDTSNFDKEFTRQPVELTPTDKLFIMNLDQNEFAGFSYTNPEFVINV
T2 sequence (P05771 2-671 limits assumed): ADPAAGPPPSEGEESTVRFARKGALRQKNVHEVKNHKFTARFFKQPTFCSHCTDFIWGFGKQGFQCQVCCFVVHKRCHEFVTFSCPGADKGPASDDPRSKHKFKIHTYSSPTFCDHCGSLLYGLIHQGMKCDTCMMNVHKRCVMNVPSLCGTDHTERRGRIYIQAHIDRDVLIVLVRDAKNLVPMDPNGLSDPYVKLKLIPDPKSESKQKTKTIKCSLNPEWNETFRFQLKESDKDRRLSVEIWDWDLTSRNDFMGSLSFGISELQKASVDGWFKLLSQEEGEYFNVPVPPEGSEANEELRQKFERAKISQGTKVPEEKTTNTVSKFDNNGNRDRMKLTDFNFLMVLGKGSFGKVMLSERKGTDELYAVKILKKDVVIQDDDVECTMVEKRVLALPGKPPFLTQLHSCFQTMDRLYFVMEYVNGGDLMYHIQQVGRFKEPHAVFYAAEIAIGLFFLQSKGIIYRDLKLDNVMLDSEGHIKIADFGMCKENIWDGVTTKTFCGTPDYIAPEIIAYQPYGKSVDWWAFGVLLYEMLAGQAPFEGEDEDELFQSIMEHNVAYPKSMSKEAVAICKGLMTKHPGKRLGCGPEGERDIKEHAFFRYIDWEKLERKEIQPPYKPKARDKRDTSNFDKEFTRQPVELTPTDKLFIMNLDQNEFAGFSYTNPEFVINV

B1: PRE 12 (peptide)
peptide: Ac-KDAQNLI-NH2
notes: Ac-KDAQNLI-NH2; also called peptide recognition element 12
Question: B1 was tested. Which relative binding capacity [1] did it give?
Answer: 10.4%

Question: Does B1 bind [2]?
Answer: no binding (tested: 20X the primary antibody concentration)

Question: Does B1 bind [3]?
Answer: binds

Question: And the relative binding capacity [4]?
Answer: 0.28%

Question: What about the relative binding capacity [5] of the same binder?
Answer: 0%

Question: Does B1 bind [6]?
Answer: no binding

Question: Does B1 bind [7]?
Answer: no binding

Question: Does B1 bind [8]?
Answer: no binding

Question: Does B1 bind [9]?
Answer: no binding (tested: 20X the primary antibody concentration)

Question: Does B1 bind [10]?
Answer: no binding (tested: 20X the primary antibody concentration)
